Changes are numbered by the printed parent chain. In names and notes the source's numbering stands.
T1: human FcγRIIa type H (human, UniProt P12318 36-217)
T1 construct: also called FcgRIIaH; FcγRIIa(H)
T1 sequence: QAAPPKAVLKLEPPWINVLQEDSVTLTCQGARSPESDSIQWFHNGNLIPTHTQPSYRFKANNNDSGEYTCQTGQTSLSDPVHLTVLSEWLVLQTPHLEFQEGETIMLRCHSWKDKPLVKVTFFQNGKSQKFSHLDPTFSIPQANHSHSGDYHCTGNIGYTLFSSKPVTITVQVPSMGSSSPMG

T2: human FcγRIIb (human, UniProt P31994 43-217, limits assumed)
T2 construct: also called FcgRIIb; FcγIIB
T2 sequence: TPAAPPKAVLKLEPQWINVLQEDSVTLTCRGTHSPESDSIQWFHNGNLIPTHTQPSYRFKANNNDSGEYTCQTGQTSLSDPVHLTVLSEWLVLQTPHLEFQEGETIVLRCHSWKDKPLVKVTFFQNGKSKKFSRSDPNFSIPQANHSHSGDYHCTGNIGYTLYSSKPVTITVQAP

T3: human FcγRIIa type R (human, UniProt P12318 36-217)
T3 construct: also called FcγRIIaR; FcγRIIa(R)
T3 chain: T1 sequence with H133R

T4: human FcγRIIa type H (human, UniProt P12318 36-217)
T4 construct: Whole entry named for FcγRIIa allotype H131 (AAH20823.1); also called FcγRIIaH; FcγRIIa(H)
T4 sequence: T1 sequence

T5: human FcγRIIb (human, UniProt P31994 43-217)
T5 construct: also called FcγIIB
T5 sequence: T2 sequence

B1: IL6R-BP213/IL6R-L (antibody, human IgG1)
heavy: QVQLQESGPGLVKPSETLSLTCAVSGHSISHDHAWSWVRQPPGEGLEWIGFISYSGITNYNPSLQGRVTISRDNSKNTLYLQMNSLRAEDTAVYYCARSLARTTAMDYWGEGTLVTVSSASTKGPSVFPLAPSSKSTSGGTAALGCLVKDYFPEPVTVSWNSGALTSGVHTFPAVLQSSGLYSLSSVVTVPSSSLGTQTYICNVNHKPSNTKVDKKVEPKSCDKTHTCPPCPAPDLLGGDSVFLFPPKPKDTLMISRTPEVTCVVVDVSDEDGEVKFNWYVDGVEVHNAKTKPREEQYNSTYRVVSVLTVLHQDWLNGKEYKCKVSNKALPRPIEKTISKAKGQPREPQVYTLPPSRDELTKNQVSLTCLVKGFYPSDIAVEWESNGQPENNYKTTPPVLDSDGSFFLYSKLTVDKSRWQQGNVFSCSVMHEALHNHYTQESLSLSP
light: DIQMTQSPSSLSASVGDRVTITCRASQDISSYLNWYQQKPGKAPKLLIYYTSRLHSGVPSRFSGSGSGTDFTFTISSLQPEDIATYYCQQGNTLPYTFGQGTKVEIK
notes: The common L chain is IL6R-L; copies: 2 + 2
B2: IL6R-BP187/IL6R-L (antibody, human IgG1)
heavy: B1 heavy with D235E, L236Y, D270H, K328A, R332K
light: B1 light
notes: as for B1
B3: IL6R-BP189/IL6R-L (antibody, human IgG1)
heavy: B1 heavy with D235E, G239D, K328A, R332K
light: B1 light
notes: as for B1
B4: IL6R-BP190/IL6R-L (antibody, human IgG1)
heavy: B1 heavy with D235E, G239D, R332K
light: B1 light
notes: as for B1
B5: IL6R-BP191/IL6R-L (antibody, human IgG1)
heavy: B1 heavy with K328A, R332K
light: B1 light
notes: as for B1
B6: IL6R-BP192/IL6R-L (antibody, human IgG1)
heavy: B1 heavy with Y298D, R332K
light: B1 light
notes: as for B1
B7: IL6R-BP194/IL6R-L (antibody, human IgG1)
heavy: B1 heavy with L236Y, G239D, K328A, R332K
light: B1 light
notes: as for B1
B8: IL6R-BP195/IL6R-L (antibody, human IgG1)
heavy: B1 heavy with L236Y, G239D, Y298D, K328A, R332K
light: B1 light
notes: as for B1
B9: IL6R-BP196/IL6R-L (antibody, human IgG1)
heavy: B1 heavy with D235E, L236Y, K328A, R332K
light: B1 light
notes: as for B1
B10: IL6R-BP197/IL6R-L (antibody)
heavy: B1 heavy with L236Y, G239D, Y298D, K328D, R332K
light: B1 light
notes: copies: 2 + 2
B11: IL6R-BP198/IL6R-L (antibody, human IgG1)
heavy: B1 heavy with L236Y, K328A, R332K
light: B1 light
notes: as for B1
B12: IL6R-BP199/IL6R-L (antibody)
heavy: B1 heavy with D270H, G273P, K328D
light: B1 light
notes: copies: 2 + 2
B13: IL6R-BP203/IL6R-L (antibody, human IgG1)
heavy: B1 heavy with D235E, G239D, D270H
light: B1 light
notes: as for B1
B14: IL6R-BP206/IL6R-L (antibody, human IgG1)
heavy: B1 heavy with D270H
light: B1 light
notes: as for B1
B15: IL6R-BP207/IL6R-L (antibody, human IgG1)
heavy: B1 heavy with D270H, G273P
light: B1 light
notes: as for B1
B16: IL6R-BP211/IL6R-L (antibody, human IgG1)
heavy: B1 heavy with K328A
light: B1 light
notes: as for B1
B17: IL6R-BP912/IL6R-L (antibody, human IgG1)
heavy: B1 heavy with D235E, D270H, G273P
light: B1 light
notes: copies: 2 + 2
B18: IL6R-G1d/IL6R-L (antibody, human IgG1)
heavy: not shown
light: B1 light
notes: Anti-human IL-6 receptor IgG1 with G1d constant region (C-terminal Gly and Lys removed); also called IgG1; copies: 2 + 2
B19: IL6R-BF648/IL6R-L (antibody, human IgG1)
heavy: not shown
light: B1 light
notes: IL6R-B3 with P238D; copies: 2 + 2

Molecular target: T6, human FcγRIa (human, UniProt P12314 16-292, limits assumed)
T6 construct: also called FcgRIa; CD64
Experiment: SPR (Biacore); binding amount divided by that of control IL6R-BF648/IL6R-L, x100
T6 sequence (P12314 16-292 limits assumed): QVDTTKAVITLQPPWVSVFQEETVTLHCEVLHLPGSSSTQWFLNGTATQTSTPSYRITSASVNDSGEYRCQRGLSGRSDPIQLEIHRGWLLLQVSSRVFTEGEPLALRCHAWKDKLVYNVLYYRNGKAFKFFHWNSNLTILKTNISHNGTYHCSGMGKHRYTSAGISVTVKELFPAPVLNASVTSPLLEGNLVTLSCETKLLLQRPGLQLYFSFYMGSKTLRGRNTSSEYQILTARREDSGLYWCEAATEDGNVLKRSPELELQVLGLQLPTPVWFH
Description: (§1) According to the following method, relative binding activities were calculated for the results of analyzing interactions with the respective FcγRs.

Binder	relative binding activity
B1	118 % of IL6R-BF648/IL6R-L
B2	68 % of IL6R-BF648/IL6R-L
B3	56 % of IL6R-BF648/IL6R-L
B4	50 % of IL6R-BF648/IL6R-L
B5	125 % of IL6R-BF648/IL6R-L
B6	109 % of IL6R-BF648/IL6R-L
B7	69 % of IL6R-BF648/IL6R-L
B8	68 % of IL6R-BF648/IL6R-L
B9	89 % of IL6R-BF648/IL6R-L
B10	71 % of IL6R-BF648/IL6R-L
B11	104 % of IL6R-BF648/IL6R-L
B12	112 % of IL6R-BF648/IL6R-L
B13	35 % of IL6R-BF648/IL6R-L
B14	101 % of IL6R-BF648/IL6R-L
B15	74 % of IL6R-BF648/IL6R-L
B16	128 % of IL6R-BF648/IL6R-L

Molecular target: T1, human FcγRIIa type H
Experiment: as above
Description: as §1

Binder	relative binding activity
B1	123 % of IL6R-BF648/IL6R-L
B2	205 % of IL6R-BF648/IL6R-L
B3	183 % of IL6R-BF648/IL6R-L
B4	224 % of IL6R-BF648/IL6R-L
B5	145 % of IL6R-BF648/IL6R-L
B6	122 % of IL6R-BF648/IL6R-L
B7	395 % of IL6R-BF648/IL6R-L
B8	344 % of IL6R-BF648/IL6R-L
B9	195 % of IL6R-BF648/IL6R-L
B10	294 % of IL6R-BF648/IL6R-L
B11	188 % of IL6R-BF648/IL6R-L
B12	116 % of IL6R-BF648/IL6R-L
B13	255 % of IL6R-BF648/IL6R-L
B14	123 % of IL6R-BF648/IL6R-L
B15	103 % of IL6R-BF648/IL6R-L

Molecular target: T2, human FcγRIIb
Experiment: as above
Description: as §1

Binder	relative binding activity
B1	169 % of IL6R-BF648/IL6R-L
B2	157 % of IL6R-BF648/IL6R-L
B3	177 % of IL6R-BF648/IL6R-L
B6	172 % of IL6R-BF648/IL6R-L
B7	178 % of IL6R-BF648/IL6R-L
B9	157 % of IL6R-BF648/IL6R-L
B10	179 % of IL6R-BF648/IL6R-L
B11	164 % of IL6R-BF648/IL6R-L
B12	144 % of IL6R-BF648/IL6R-L
B13	185 % of IL6R-BF648/IL6R-L
B14	168 % of IL6R-BF648/IL6R-L
B15	124 % of IL6R-BF648/IL6R-L
B16	165 % of IL6R-BF648/IL6R-L

Molecular target: T7, human FcγRIIIa type V (human, UniProt P08637 17-208, limits assumed)
T7 construct: The assay used allotype V158; also called FcgRIIIaV; FcγRIIIa(V)
Experiment: as above
T7 sequence (P08637 other isoform, or with tags, fused parts or gaps limits assumed): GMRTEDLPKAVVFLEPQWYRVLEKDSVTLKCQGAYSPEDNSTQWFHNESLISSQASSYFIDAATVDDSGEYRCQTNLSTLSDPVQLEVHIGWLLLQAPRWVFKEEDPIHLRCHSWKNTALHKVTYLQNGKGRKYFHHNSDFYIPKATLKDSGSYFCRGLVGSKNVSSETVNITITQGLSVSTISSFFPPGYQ
Description: as §1

Binder	relative binding activity
B1	100 % of IL6R-BF648/IL6R-L
B2	124 % of IL6R-BF648/IL6R-L
B3	141 % of IL6R-BF648/IL6R-L
B4	155 % of IL6R-BF648/IL6R-L
B5	142 % of IL6R-BF648/IL6R-L
B6	118 % of IL6R-BF648/IL6R-L
B7	249 % of IL6R-BF648/IL6R-L
B8	221 % of IL6R-BF648/IL6R-L
B9	137 % of IL6R-BF648/IL6R-L
B10	206 % of IL6R-BF648/IL6R-L
B11	157 % of IL6R-BF648/IL6R-L
B12	103 % of IL6R-BF648/IL6R-L
B13	88 % of IL6R-BF648/IL6R-L
B14	92 % of IL6R-BF648/IL6R-L
B15	97 % of IL6R-BF648/IL6R-L
B16	87 % of IL6R-BF648/IL6R-L

Molecular target: T8, human FcγRIa (human, UniProt P12314 16-292, limits assumed)
T8 construct: also called CD64
Experiment: SPR (Biacore), FcγR over captured antibody; amount bound relative to IL6R-BF648/IL6R-L x100
T8 sequence (P12314 16-292 limits assumed): as the sequence (P12314 16-292 limits assumed) above

Binder	relative binding
B17	60 relative value (IL6R-BF648/IL6R-L = 100)
B18	140 relative value (IL6R-BF648/IL6R-L = 100)
B19	100 relative value (IL6R-BF648/IL6R-L = 100)

Molecular target: T3, human FcγRIIa type R
Experiment: as above

Binder	relative binding
B17	81 relative value (IL6R-BF648/IL6R-L = 100)
B18	650 relative value (IL6R-BF648/IL6R-L = 100)
B19	100 relative value (IL6R-BF648/IL6R-L = 100)

Molecular target: T4, human FcγRIIa type H
Experiment: as above

Binder	relative binding
B17	93 relative value (IL6R-BF648/IL6R-L = 100)
B18	1670 relative value (IL6R-BF648/IL6R-L = 100)
B19	100 relative value (IL6R-BF648/IL6R-L = 100)

Molecular target: T5, human FcγRIIb
Experiment: as above

Binder	relative binding
B17	103 relative value (IL6R-BF648/IL6R-L = 100)
B18	62 relative value (IL6R-BF648/IL6R-L = 100)
B19	100 relative value (IL6R-BF648/IL6R-L = 100)

Molecular target: T9, human FcγRIIIa type V (human, UniProt P08637 17-208, limits assumed)
T9 construct: also called FcγRIIIaV; FcγRIIIa(V)
Experiment: as above
T9 sequence (P08637 other isoform, or with tags, fused parts or gaps limits assumed): as the sequence (P08637 other isoform, or with tags, fused parts or gaps limits assumed) above

Binder	relative binding
B17	97 relative value (IL6R-BF648/IL6R-L = 100)
B18	3350 relative value (IL6R-BF648/IL6R-L = 100)
B19	100 relative value (IL6R-BF648/IL6R-L = 100)

Source: US20140105889A1 (published 2014)
